The record followed here is PMC4006704.

Where only a bound is given, the exact number is not on record here.

In assay [1] the target is GST-Med19 (Drosophila melanogaster) (UniProt Q9VVL6). The experiment in a line: pull-down; 35S-labelled Hox / homeodomain peptides on immobilised GST-Med19 (Figures 1E, S2).
Assay [2] concerns the target multiple GST-Hox proteins (Drosophila melanogaster). In words: pull-down; 35S-labelled Med19 (full length or deleted versions) probing immobilised GST-Hox fusions or GST-HDAntp; standard conditions, essentially as in ref. 68 (Figures 1A, 5A).

Take “HD region of Drosophila Ubx, with its hexapeptide (HX), linker region and HD (wild-type) (domain or fragment)”: in assay [1], the percent of input bound is 7 % of input.

In the case of “HD region of crustacean Artemia Ubx (linker-shortened C-terminal region) (domain or fragment)”, the percent of input bound in assay [1] is 5 % of input.

B1: 35S-labelled full-length Med19 (Mediator complex subunit 19) (natural protein)
chain: MMSNYGNMMDSPKSSPHGGGRSPVVARQDSSGTLKTTISLGKTPTIIHTGPFYSMKEPPAKAELTGDKDLMTEYGLHHTLTKFKEKKFKESLASFLQNIPGINDLITHPVENSTLRSVIEKPPIGGKELLPLTPVQLAGFRLHPGPLPEQYRTTYVTPARKHKNKHKKQKHKDGVTTGQESTLLDSAGLETYEKKHKKQKRHEDDKERKKRKKEKKRKKKNQSPEPGVGLLPGGASLGGAAGVMGATSLGSLGGGPGGPGLSSLSASMGPGVVGNMNSFSSSMQMQQQQQMPMQQQQMSSGGLLGSVLGTSGGPGGGGGGGGGGGGGVGGSLLMSQF
modifications: 35S-labelled
For the molecule B1, the percent of input bound in assay [2] was > 5 % of input.
